Experimental data: patent US20140030270A1

B1: 21B12 IgG4 (21B12, anti-PCSK9 huIgG4) (antibody, V domains shown)
VH: QVQLVQSGAEVKKPGASVKVSCKASGYTLTSYGISWVRQAPGQGLEWMGWVSFYNGNTNYAQKLQGRGTMTTDPSTSTAYMELRSLRSDDTAVYYCARGYGMDVWGQGTTVTVSS
VL: QSALTQPASVSGSPGQSITISCTGTSSDVGGYNSVSWYQQHPGKAPKLMIYEVSNRPSGVSNRFSGSKSGNTASLTISGLQAEDEADYYCNSYTSTSMVFGGGTKLTVLQ
B2: 16F12 IgG4 (16F12, anti-PCSK9 huIgG4) (antibody, V domains shown)
VH: QVHLVESGGGVVQPGRSLRLSCAASGFTFNSFGMHWVRQAPGKGLEWVALIWSDGSDEYYADSVKGRFTISRDNSKNTLYLQMNSLRAEDTAVYYCARAIAALYYYYGMDVWGQGTTVTVSS
VL: QSVLTQPPSVSAAPGQKVTISCSGSSSNIGNNFVSWYQQLPGTAPKLLIYDYNKRPSGIPDRFSGSKSGTSATLGITGLQTGDEADYYCGTWDSSLSAYVFGTGTRVTVLQ

Tests used:
[1] = target: cynomolgus monkey PCSK9, V5-6xHIS tagged (cynomolgus monkey); experiment: Biacore solution equilibrium assay, free PCSK9 measured on immobilised 21B12
[2] = target: cynomolgus monkey PCSK9, V5-6xHIS tagged (cynomolgus monkey); experiment: SPR (Biacore 2000), antibody amine-coupled to the chip, PCSK9 as analyte, pH 7.4
[3] = target: cynomolgus monkey PCSK9, V5-6xHIS tagged (cynomolgus monkey); experiment: KinExA solution equilibrium, PCSK9-coated beads; cyno PCSK9

Binder	Kd [1]	Kd [2]	Kd [3]
B1	0.011 nM	0.36 nM	
B2		0.87 nM	0.016 nM
